One test concerns the target SARS-CoV RBD蛋白 (SARS-CoV, UniProt P59594 306-527).
In a further test the target is 冠状病毒RaTG13 RBD蛋白 (coronavirus RaTG13).

B1: IMCAS-364 scFv (scFv, V domains shown)
VH: QVQLQESGGGVVQPGRSLRLSCAASGFTFSRYGMHWVRQAPGKGLEWVAVIWYDGSNKYYADSVKGRFTISRDNSKNTLYLQMNSLRADDTAVYYCAKQEGTYCSGGSCYSGLDYWGQGTLVTVSS
VL: not shown
In the case of B1, in the test with SARS-CoV RBD蛋白, the Kd worked out at 8.17 nM. In other words, the single-digit nanomolar range.

B2: IMCAS-72 scFv (scFv, V domains shown)
VH: QVQLVESGGGLVQPGGSLRLSCAASGFTFSSYGMHWVRQAPGKGLEWVAVISYDGSDKYYADSVKGRFTISRDNSKNTLYLQMNSLRAEDTAVYYCARDRDRFGDQGGWFDPWGQGTLVTVSS
VL: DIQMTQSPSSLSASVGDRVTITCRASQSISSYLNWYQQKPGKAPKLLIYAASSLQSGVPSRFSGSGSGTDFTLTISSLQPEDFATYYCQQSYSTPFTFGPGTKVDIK
The molecule B2 returned a Kd in the test with 冠状病毒RaTG13 RBD蛋白 of 6.21 nM.

By Kd is commonly meant a measure of binding affinity in units of concentration. A low value points to tighter binding.

(Values after patent CN114397452A (dated 2022).)
